Measured values published in patent US7867500B2, “Cofactor that modulates steroid receptor activities” (The United States of America as represented by the …, priority 2004, dated 2011).

Tests used:
p300 = target: T1, p300 (Homo sapiens, UniProt Q09472); experiment: Mammalian two-hybrid assay with p300; assay type: cell-based; details: data not shown
T1 construct: expressed in transfected cells; host or cells: CV-1 (the same two-hybrid assay)
Protocol: These assays were conducted as described (He et al., 2002). In particular, the recommended procedure for the Mammalian Matchmaker two-hybrid assay kit (Clontech) was modified slightly by changing from a chloramphenicol acetyltransferase reporter to a Luciferase Reporter pFRLuc (Stratagene), which is under the control of five repeats of the upstream activating sequence for the binding of GAL4.

SRC-1 (1139C) = target: T2, SRC-1 (1139C) (Homo sapiens, UniProt Q15788); experiment: Mammalian two-hybrid assay in CV-1 cells with SRC-1 C-terminal fragment; assay type: cell-based
T2 construct: expressed in transfected cells; host or cells: CV-1
T2 sequence (Q15788 1139-1441 limits assumed): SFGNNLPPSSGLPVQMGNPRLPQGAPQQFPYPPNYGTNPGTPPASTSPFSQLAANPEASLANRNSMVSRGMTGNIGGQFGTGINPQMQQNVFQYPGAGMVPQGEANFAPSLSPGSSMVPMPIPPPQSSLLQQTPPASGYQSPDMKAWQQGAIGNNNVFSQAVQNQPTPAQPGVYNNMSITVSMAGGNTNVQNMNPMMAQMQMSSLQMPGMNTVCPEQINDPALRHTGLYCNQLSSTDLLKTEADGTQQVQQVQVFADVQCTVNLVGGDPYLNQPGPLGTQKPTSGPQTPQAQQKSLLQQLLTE
T2 sequence (Q6EMB2 627-838 partner limits assumed): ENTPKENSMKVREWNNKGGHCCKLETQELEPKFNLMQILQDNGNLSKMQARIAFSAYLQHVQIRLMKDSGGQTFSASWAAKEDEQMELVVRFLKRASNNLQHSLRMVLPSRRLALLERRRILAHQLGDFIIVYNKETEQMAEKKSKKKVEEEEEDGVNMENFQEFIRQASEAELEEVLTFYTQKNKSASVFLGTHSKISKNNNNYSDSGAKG
Excerpt: FIG. 2A-2C illustrate the isolation and characterization of the partial clone of the protein that binds to TIF2.4. […] Five clones were obtained but only two (clones I and V) contained a protein that was needed for colony growth in the presence of the pSos/TIF2.4 fusion protein. After initial screening, only clone I (also named 6-6CL1) was selected for further investigation. FIG. 2B and FIG. 2C illustrate the selectivity of 6-6CL1 interactions with TIF2.4 in mammalian two-hybrid assays. Triplicate samples of CV-1 cells in 24-well plates were transiently transfected with the indicated GAL-DBD and VP16-AD plasmids along with the GAL4-regulated reporter, pFRLuc. The relative luciferase activity, normalized for the activity of the internal Renilla control, was determined and plotted as the average±S.D. The much lower activity of GAL/TIF2.4m123 was previously shown not to be due to unequal levels of protein expression (He et al., 2002). Similar results were obtained in three additional experiments. […] Triplicate samples of CV-1 cells in 24-well plates were analyzed as in (B&C) after being transiently transfected with GAL±6-6CL1 constructs and pFRLuc reporter along with VP16 chimeras of SRC-1 (FIG. 2D) or TIF2 (FIG. 2E) segments. Similar results for SRC-1 were obtained in two additional experiments (ND=not determined). […]

T1 sequence (Q09472 whole entry, species assumed): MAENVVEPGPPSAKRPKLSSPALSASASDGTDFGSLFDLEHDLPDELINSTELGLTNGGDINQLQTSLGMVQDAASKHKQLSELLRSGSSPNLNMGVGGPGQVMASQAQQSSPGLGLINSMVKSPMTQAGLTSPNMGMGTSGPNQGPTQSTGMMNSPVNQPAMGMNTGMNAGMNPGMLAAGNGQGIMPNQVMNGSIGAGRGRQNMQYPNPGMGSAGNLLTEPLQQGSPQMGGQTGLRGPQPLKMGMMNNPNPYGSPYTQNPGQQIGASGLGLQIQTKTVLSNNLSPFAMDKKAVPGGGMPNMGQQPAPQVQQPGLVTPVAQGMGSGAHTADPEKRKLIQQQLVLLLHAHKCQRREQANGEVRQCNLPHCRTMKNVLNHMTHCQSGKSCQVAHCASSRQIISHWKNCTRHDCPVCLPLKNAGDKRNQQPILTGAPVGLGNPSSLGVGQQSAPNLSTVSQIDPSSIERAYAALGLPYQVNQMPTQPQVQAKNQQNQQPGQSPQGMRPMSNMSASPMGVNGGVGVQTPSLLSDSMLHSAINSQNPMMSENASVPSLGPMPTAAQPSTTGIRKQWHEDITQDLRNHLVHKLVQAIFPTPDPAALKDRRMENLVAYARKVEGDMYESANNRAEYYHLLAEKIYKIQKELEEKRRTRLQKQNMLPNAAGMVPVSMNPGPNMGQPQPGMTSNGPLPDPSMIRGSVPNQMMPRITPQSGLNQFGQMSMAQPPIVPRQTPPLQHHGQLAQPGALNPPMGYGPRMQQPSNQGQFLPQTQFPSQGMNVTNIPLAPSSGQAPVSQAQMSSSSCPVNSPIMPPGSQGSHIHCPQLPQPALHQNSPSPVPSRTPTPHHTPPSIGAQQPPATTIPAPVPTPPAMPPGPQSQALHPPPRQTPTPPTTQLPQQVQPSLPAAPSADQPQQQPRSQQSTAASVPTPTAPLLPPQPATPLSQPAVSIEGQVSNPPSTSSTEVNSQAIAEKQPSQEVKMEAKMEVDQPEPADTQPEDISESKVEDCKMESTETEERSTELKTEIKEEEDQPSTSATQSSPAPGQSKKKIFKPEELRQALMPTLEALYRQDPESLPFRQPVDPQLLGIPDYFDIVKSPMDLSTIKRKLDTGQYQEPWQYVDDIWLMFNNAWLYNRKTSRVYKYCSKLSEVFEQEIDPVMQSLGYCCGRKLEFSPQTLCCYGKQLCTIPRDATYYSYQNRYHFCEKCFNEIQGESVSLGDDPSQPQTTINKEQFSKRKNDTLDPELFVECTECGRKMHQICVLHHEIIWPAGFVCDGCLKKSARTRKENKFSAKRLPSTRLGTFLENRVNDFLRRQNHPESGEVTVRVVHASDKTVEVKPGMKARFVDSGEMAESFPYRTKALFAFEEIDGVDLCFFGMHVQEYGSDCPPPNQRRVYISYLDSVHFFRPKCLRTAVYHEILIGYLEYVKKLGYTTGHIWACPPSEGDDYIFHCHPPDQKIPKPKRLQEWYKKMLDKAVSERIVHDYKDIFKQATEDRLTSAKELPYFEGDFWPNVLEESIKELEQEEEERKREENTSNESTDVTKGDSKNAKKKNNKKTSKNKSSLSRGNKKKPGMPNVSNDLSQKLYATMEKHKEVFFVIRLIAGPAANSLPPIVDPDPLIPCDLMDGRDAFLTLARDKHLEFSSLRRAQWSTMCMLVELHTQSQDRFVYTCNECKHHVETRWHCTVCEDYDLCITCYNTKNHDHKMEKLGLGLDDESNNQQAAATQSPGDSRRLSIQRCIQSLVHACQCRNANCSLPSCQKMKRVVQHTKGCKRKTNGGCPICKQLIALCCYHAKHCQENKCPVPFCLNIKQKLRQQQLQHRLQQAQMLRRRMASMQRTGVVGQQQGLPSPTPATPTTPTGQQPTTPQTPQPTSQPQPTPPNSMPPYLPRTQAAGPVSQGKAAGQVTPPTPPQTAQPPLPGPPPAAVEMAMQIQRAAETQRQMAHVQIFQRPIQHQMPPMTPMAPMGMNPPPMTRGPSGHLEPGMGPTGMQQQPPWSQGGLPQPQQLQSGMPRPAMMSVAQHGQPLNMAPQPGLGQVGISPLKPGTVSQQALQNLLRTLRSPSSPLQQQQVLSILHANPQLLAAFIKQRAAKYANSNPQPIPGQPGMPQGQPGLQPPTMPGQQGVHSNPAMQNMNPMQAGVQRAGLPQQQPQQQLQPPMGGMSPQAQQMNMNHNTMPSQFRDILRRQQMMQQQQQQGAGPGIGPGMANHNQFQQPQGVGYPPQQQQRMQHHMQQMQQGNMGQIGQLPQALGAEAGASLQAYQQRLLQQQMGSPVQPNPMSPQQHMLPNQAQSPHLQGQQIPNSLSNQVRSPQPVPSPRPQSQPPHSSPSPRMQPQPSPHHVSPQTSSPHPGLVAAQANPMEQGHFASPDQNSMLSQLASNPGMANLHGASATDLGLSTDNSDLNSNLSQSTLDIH

association with p300 (p300): negligible association
interaction with C-terminal portion of SRC-1 (1139C) (SRC-1 (1139C)): strongly interacted
B1: 6-6CL1: STAMP fragment amino acids 623-834, coactivator interaction domain (CID) (protein)
chain: T2 sequence (Q6EMB2 627-838 partner limits assumed)
